Experimental data as given in patent US20200157537, “Modulating RNA Interactions with Polycomb Repressive Complex 1 (PRC1)” (The General Hospital Corporation, published 2020).

What was measured:
GFP (control protein) = GFP (control protein) (UniProt P42212 P42212:1-238); assay: EMSA; control protein; details: tags: Flag; label: radiolabelled
Experimental: (§1) RNA-EMSA assays with CBX7 protein were performed as follows. Labeled RNAs were produced with MEGAscript® T7 Transcription Kit (Life Technologies) and purified from 6% acrylamide TBE-urea gels. Labeled RNAs were prefolded in buffer TE+300 mM NaCl by incubating for 2 min at 95° C., followed by 20 min incubation on ice. Binding reactions were assembled with 20 μl of binding mix (13 mM Tris pH 8.0, 0.2 mM EDTA, 68.8 mM NaCl, 20% Glycerol, 0.2 mg/ml Yeast tRNA, 4 mM DTT, 4 μl 2500 cpm/μl RNA probe). LNA oligonucleotides were added to binding mix at final concentration of 8 μM and samples were pre-incubated on ice for 10 min. After pre-incubation, binding mix samples were combined with 60 μl of purified protein in dialysis buffer (50 mM Tris pH 7.4, 5 mM MgCl₂, 50 mM NaCl, 1 mM DTT, 10% Glycerol, 4 u/μl Protector RNAse inhibitor (Roche)). Control experiments were performed with dialysis buffer only or control proteins—Flag-GFP or GST-Flag-HA, dissolved in dialysis buffer at the highest protein concentration in the particular experiment. After 30 min on ice, the sample was loaded onto a 5% 37:1 acrylamide (Bio-Rad) gel in 0.5× TBE buffer (45 mM Tris-Borate, 1 mM disodium EDTA) and run for 90 min at 250 V at 4° C. Gels were exposed to phosphorimager screens. For validation of motif sequences, labeled RNA probes were produced with MEGAshortscript™ T7 Transcription Kit (Life Technologies) and gel purified using 15% TBE-urea gels (Life technologies) Similar RNA-EMSA conditions were applied except 8% 37:1 acrylamide (Bio-Rad) gels replaced 5% gels.

CBX7 [1] = target: T1, CBX7 (Mus musculus, UniProt Q8VDS3 Q8VDS3:1-158); assay: EMSA; low micromolar range, value only in figure; positive cooperativity; yeast tRNA, Mg2+, on ice; details: tags: C-terminal Flag-HA; baculovirus Sf9, anti-FLAG M2 purified; label: radiolabelled
T1 sequence (Q8VDS3 whole entry, one chain of several): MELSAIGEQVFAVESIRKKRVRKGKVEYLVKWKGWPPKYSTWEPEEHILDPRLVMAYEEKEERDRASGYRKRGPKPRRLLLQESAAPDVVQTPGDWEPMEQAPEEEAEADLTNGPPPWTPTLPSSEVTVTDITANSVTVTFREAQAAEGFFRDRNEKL
Experimental: as §1, with “For validation of motif sequences, labeled RNA probes were produced with MEGAshortscript™ T7 Transcription Kit (Life Technologies) and gel purified using 15% TBE-urea gels (Life technologies) Similar RNA-EMSA conditions were applied except 8% 37:1 acrylamide (Bio-Rad) gels replaced 5% gels.” left out

CBX7 [2] = target: T1, CBX7; assay: EMSA; low micromolar range, value only in figure; Hill coefficient suggests cooperativity, 2-3 sites; yeast tRNA, Mg2+, on ice; competed by cold Dcaf12l1; details: tags: C-terminal Flag-HA; baculovirus Sf9, anti-FLAG M2 purified; label: radiolabelled
Experimental: as §1, with “For validation of motif sequences, labeled RNA probes were produced with MEGAshortscript™ T7 Transcription Kit (Life Technologies) and gel purified using 15% TBE-urea gels (Life technologies) Similar RNA-EMSA conditions were applied except 8% 37:1 acrylamide (Bio-Rad) gels replaced 5% gels.” left out

Binder | binding result (GFP (control protein)) | binding result (CBX7 [1]) | binding result (CBX7 [2])
Calm2 3'UTR EMSA probe (ssRNA) RNA: GUAGCUUUUAGGAACUGUCAGCAUGUUGUUGUUGAAGUGUGGAGCUGUAACUCUGCGUGGACUGUGGACAGUCAACAAUAUGUACUUAAAAGUUGCACUAUUGCAA | no binding | binds | 
Dcaf12l1 3'UTR EMSA probe (ssRNA) RNA: UCAAAUAGAGGAGCUGGGGAUUAAAAAGAUAGGUCUGAUUAAAGGACUGUGCAGUUCAGAUAAAUAGAGAUAAUGGGAUGCCGUGCGGAUAGAUUGGUUUUCUCC | no binding |  | binds
Dusp9 3'UTR EMSA probe (ssRNA) RNA: GGCCACUUUGACUCGUGUAGACUCCUUCCUGCUUCUCUCACUAGGGCUUAGACUUCUUGGAACUGUAGGGUGUGAACCCAGAGAC | no binding | binds | 
